Results taken from the supplement of paper PMC10567573.

B1: TRIM63 (parent)
chain: QEKKLSFIEALIQQYQEQLDKSTK

Variants of: B1
Assay: protein stability index of a GFP-peptide fusion (GPS, HEK-293T) (PSI 1-6); higher = more stable
Details: c terminus: a fixed tail appended
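Also: lentivirally expressed fusions sorted by FACS into six bins by GFP to DsRed ratio, PSI derived from sequencing read proportions per bin multiplied by bin number.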

Variant	protein stability index
QEKKLSFIEALIQQYQEQLDKSTG [K24G]	2.71
QEKKLSFIEALIQQYQEQLDKSTE [K24E]	3.51
QEKKLSFIEALIQQYQEQLDKSTR [K24R]	1.84
QEKKLSFIEALIQQYQEQLDKSTN [K24N]	2.79
QEKKLSFIEALIQQYQEQLDKSTC [K24C]	2.99
QEKKLSFIEALIQQYQEQLDKSTL [K24L]	2.47
QEKKLSFIEALIQQYQEQLDKSTY [K24Y]	1.36
QEKKLSFIEALIQQYQEQLDKSTS [K24S]	2.61
QEKKLSFIEALIQQYQEQLDKSTQ [K24Q]	2.68
QEKKLSFIEALIQQYQEQLDKSTD [K24D]	3.66
QEKKLSFIEALIQQYQEQLDKSTA [K24A]	2.25
QEKKLSFIEALIQQYQEQLDKSTM [K24M]	2.32
QEKKLSFIEALIQQYQEQLDKSTW [K24W]	1.67
QEKKLSFIEALIQQYQEQLDKSTP [K24P]	3.33
QEKKLSFIEALIQQYQEQLDKSTV [K24V]	2.31
QEKKLSFIEALIQQYQEQLDKSTT [K24T]	2.67
QEKKLSFIEALIQQYQYQLDKSTK [E17Y]	2.84
QEKKLSFIEALIQQYQIQLDKSTK [E17I]	2.14
QEKKLSFIEALIQQYQTQLDKSTK [E17T]	2.68
QEKKLSFIEALIQQYQQQLDKSTK [E17Q]	2.65
QEKKLSFIEALIQQYQVQLDKSTK [E17V]	1.75
QEKKLSFIEALIQQYQLQLDKSTK [E17L]	1.8
QEKKLSFIEALIQQYQWQLDKSTK [E17W]	1.3
QEKKLSFIEALIQQYQMQLDKSTK [E17M]	2.08

Variant	protein stability index
QEKKLSFIEALIQQYQKQLDKSTK [E17K]	2.16
QEKKLSFIEALIQQYQSQLDKSTK [E17S]	2.26
QEKKLSFIEALIQQYQNQLDKSTK [E17N]	1.81
QEKKLSFIEALIQQYQRQLDKSTK [E17R]	1.45
QEKKLSFIEALIQQYQHQLDKSTK [E17H]	2.11
QEKKLSFIEALIQQYQEQLDKITK [S22I]	2.74
QEKKLSFIEALIQQYQEQLDKRTK [S22R]	1.98
QEKKLSFIEALIQQYQEQLDKMTK [S22M]	2.65
QEKKLSFIEALIQQYQEQLDKVTK [S22V]	2.45
QEKKLSFIEALIQQYQEQLDKPTK [S22P]	3.1
QEKKLSFIEALIQQYQEQLDKCTK [S22C]	2.26
QEKKLSFIEALIQQYQEQLDKATK [S22A]	2.23
QEKKLSFIEALIQQYQEQLDKHTK [S22H]	2.7
QEKKLSFIEALIQQYQEQLDKKTK [S22K]	2.52
QEKKLSFIEALIQQYQEQLDKDTK [S22D]	3.1
QEKKLSFIEALIQQYQEQLDKGTK [S22G]	2.26
QEKKLSFIEALIQQYQEQLDKETK [S22E]	3.21
QEKKLSFIEALIQQYQEQLDKWTK [S22W]	1.92
QEKKLSFIEALIQQYQEQLDKFTK [S22F]	3.09
QEKKLSFIEALIQQYQEQLDKNTK [S22N]	2.89
QEKKLSFIEALIQQYQEQLDKQTK [S22Q]	2.43
QEKKLSFIEALIQQYQEQLDKTTK [S22T]	2.75
QEKKLSFIEALIQQYQEQADKSTK [L19A]	4.3
QEKKLSFIEALIQQYQEQRDKSTK [L19R]	2.91

Variant	protein stability index
QEKKLSFIEALIQQYQEQPDKSTK [L19P]	3.26
QEKKLSFIEALIQQYQEQFDKSTK [L19F]	2.38
QEKKLSFIEALIQQYQEQEDKSTK [L19E]	3.41
QEKKLSFIEALIQQYQEQWDKSTK [L19W]	2.32
QEKKLSFIEALIQQYQEQIDKSTK [L19I]	3.19
QEKKLSFIEALIQQYQEQQDKSTK [L19Q]	3.21
QEKKLSFIEALIQQYQEQDDKSTK [L19D]	3.77
QEKKLSFIEALIQQYQEQHDKSTK [L19H]	3.54
QEKKLSFIEALIQQYQEQMDKSTK [L19M]	3.18
QEKKLSFIEALIQQYQEQKDKSTK [L19K]	4.08
QEKKLSFIEALIQQYQERLDKSTK [Q18R]	2.51
QEKKLSFIEALIQQYQEKLDKSTK [Q18K]	2.58
QEKKLSFIEALIQQYQECLDKSTK [Q18C]	2.34
QEKKLSFIEALIQQYQEYLDKSTK [Q18Y]	2.49
QEKKLSFIEALIQQYQEWLDKSTK [Q18W]	3
QEKKLSFIEALIQQYQEHLDKSTK [Q18H]	1.79
QEKKLSFIEALIQQYQESLDKSTK [Q18S]	2.71
QEKKLSFIEALIQQYQETLDKSTK [Q18T]	2.93
QEKKLSFIEALIQQYQEDLDKSTK [Q18D]	3.54
QEKKLSFIEALIQQYQEGLDKSTK [Q18G]	1.95
QEKKLSFIEALIQQYQEMLDKSTK [Q18M]	1.81
QEKKLSFIEALIQQYQEELDKSTK [Q18E]	2.51
QEKKLSFIEALIQQYQEILDKSTK [Q18I]	2.08
QEKKLSFIEALIQQYQENLDKSTK [Q18N]	3.28

Variant	protein stability index
QEKKLSFIEALIQQYQEFLDKSTK [Q18F]	1.98
QEKKLSFIEALIQQYQEVLDKSTK [Q18V]	2.3
QEKKLSFIEALIQQYQEALDKSTK [Q18A]	2.37
QEKKLSFIEALIQQYQEPLDKSTK [Q18P]	3.31
QEKKLSFIEALIQQYQELLDKSTK [Q18L]	2.25
QEKKLSFIEALIQQYQEQLDISTK [K21I]	2.86
QEKKLSFIEALIQQYQEQLDQSTK [K21Q]	3
QEKKLSFIEALIQQYQEQLDESTK [K21E]	3.26
QEKKLSFIEALIQQYQEQLDSSTK [K21S]	2.78
QEKKLSFIEALIQQYQEQLDYSTK [K21Y]	2.1
QEKKLSFIEALIQQYQEQLDMSTK [K21M]	2.27
QEKKLSFIEALIQQYQEQLDASTK [K21A]	2.92
QEKKLSFIEALIQQYQEQLDLSTK [K21L]	2.17
QEKKLSFIEALIQQYQEQLDFSTK [K21F]	2.54
QEKKLSFIEALIQQYQEQLDTSTK [K21T]	1.75
QEKKLSFIEALIQQYQEQLDWSTK [K21W]	1.63
QEKKLSFIEALIQQYQEQLDPSTK [K21P]	1.99
QEKKLSFIEALIQQYQEQLDGSTK [K21G]	2.02
QEKKLSFIEALIQQYQEQLDDSTK [K21D]	3.76
QEKKLSFIEALIQQYQEQLDCSTK [K21C]	2.29
QEKKLSFIEALIQQYQEQLDHSTK [K21H]	2.23
QEKKLSFIEALIQQYQEQLDVSTK [K21V]	3.04
